Biological target: mouse RANK (RANKL receptor on RAW264 cells) (mouse) (UniProt O35305)
Assay: cell-based or functional assay

Sequence of UniProt O35305 (O35305 31-625): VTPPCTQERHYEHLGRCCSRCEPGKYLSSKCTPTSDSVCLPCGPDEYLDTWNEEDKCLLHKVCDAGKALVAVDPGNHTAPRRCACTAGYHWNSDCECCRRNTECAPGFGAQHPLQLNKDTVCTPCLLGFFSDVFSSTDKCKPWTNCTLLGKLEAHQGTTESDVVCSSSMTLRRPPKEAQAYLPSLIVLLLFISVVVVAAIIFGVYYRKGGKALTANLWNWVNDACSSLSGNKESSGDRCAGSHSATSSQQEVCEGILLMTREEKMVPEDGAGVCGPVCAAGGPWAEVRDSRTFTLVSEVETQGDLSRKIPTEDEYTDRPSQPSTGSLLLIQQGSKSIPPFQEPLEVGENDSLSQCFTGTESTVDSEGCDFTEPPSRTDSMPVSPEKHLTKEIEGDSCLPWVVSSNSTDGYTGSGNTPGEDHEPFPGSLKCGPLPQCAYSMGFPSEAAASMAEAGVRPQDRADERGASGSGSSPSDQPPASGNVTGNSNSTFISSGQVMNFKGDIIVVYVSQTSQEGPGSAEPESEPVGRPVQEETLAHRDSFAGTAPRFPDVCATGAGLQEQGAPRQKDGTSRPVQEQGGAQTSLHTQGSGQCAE

GST-RANKL (fused protein of glutathione-S-transferase with human soluble RANKL residues 140-317) (ligand)
osteoclast induction activity in RAW264 cells (at concentrations of 10 nM and 5 nM) (fold over mouse soluble RANKL): > 2

From patent US20100105612A1
